We go through four molecules from patent publication US9605038B2, “Fusion peptide comprising dhFas-1 domain and MMP substrate and use thereof for preventing and treating rheumatoid arthritis” (Kyungpook National University Industry-Academic Cooperation …, priority 2010, dated 2017).

The test system of data set [1] is mouse fibroblast (NIH3T3). In words: βig-h3-mediated cell adhesion test, NIH3T3. It is filed as cell-based. The conditions noted are these: for adhesion inhibiting effect: NIH3T3, concentration of 0.5uM, FIG. 15C; for βig-h3-mediated cell adhesion: NIH3T3, βig-h3 5 ug/ml coat. The method, then:
(§1) Human βig-h3 was introduced into a 96-well plate at a concentration of 5 ug/ml, and coated for 14 hours at 4° C. In DMEM+0.5% BSA (Bovine Serum Albumin) culture medium, human fibroblast (NIH3T3) was introduced, and hsdhFas-1 peptide at concentrations was injected thereto, followed by mixing. The resultant mixture was cultured at 37° C. for 30 minutes, and plated on a coated well. It was cultured for 2 hours, and washed with PBS (phosphate buffered saline) so as to remove unattached cells, and then added with a substrate (4-Nitrophenyl N-acetyl-β-D-glucosaminide, Sigma, U.S.) to be activated by β-N-acetylglucosaminidase within the cell, followed by culturing at 37° C. for 1 hour. Then, a glycine EDTA solution (0.5M EDTA, 50 mM glycine, pH 10.4) was added thereto, and the coloring extent according to the number of attached cells was measured by absorbance.
Also, a structurally modified peptide of a fas-1 domain of mouse βig-h3 was synthesized as a recombinant peptide (hereinafter, referred to as ‘mdhFas-1peptide’, see FIG. 2), and a mouse cell line, that is, NIH3T3 cell line, was used to test the inhibiting effect by mdhFas-1 peptide on adhesion and migration of a Synovial membrane cell in the same manner as that in the test using human βig-h3.
as §1, with “βig-h3” for “Human βig-h3”, “mouse” for “human”, “MFK23, MFK24, MFK25 or MFK27” for “hsdhFas-1 peptide”

Data set [2] relates to NIH3T3. In words: βig-h3-mediated cell migration test (transwell), NIH3T3. In kind it is cell-based, mouse. Conditions: 7 hours. As for the experimental part: In the lower compartment of a transwell filter having an 8 um hole size allowing cells to be migrated, βig-h3 was cultured at 4° C. for 12 to 14 hours and coated. In DMEM+0.5% BSA culture medium, NIH3T3 was introduced, and administered with MFK23, MFK24 or MFK25 at concentrations, followed by mixing. The resultant mixture was cultured at 37° C. for 30 minutes, inoculated into the upper chamber of the coated well, and cultured for 7 hours at 37° C. Then, the cells migrated to the lower compartment of the filter were fixed by paraformaldehyde, and strained by a crystal violet. The cells […] remaining in the upper chamber were wiped out and the number of cells migrated to the lower compartment was microscopically counted.

In data set [3] the target is cathepsin D (Homo sapiens, UniProt P07339). In words: Enzymatic digestion test, cathepsin D. The conditions noted are these: 3 ug peptide, cathepsin D 5, 10, 50 ng, 37° C. 4 hours. It is filed as biochemical. As for the experimental part:
(§2) 3 ug of synthesized mdhFas-1-MMPsubstrate structure modified protein, together with MMP1 (5 ng, 10 ng and 50 ng), MMP2 (100 ng, 200 ng and 800 ng), MMP3 (10 ng, 50 ng and 100 ng), cathepsin D (5 ng, 10 ng and 50 ng), cathepsin L (100 ng, 200 ng and 800 ng), and cathepsin K (10 ng, 50 ng and 100 ng), was mixed with enzyme buffer (150 mM NaCl, 5 mM. CaCl2, 20 mM Tris-HCl pH7.5), and reacted at 37° C. for 4 hours. The resultant product was subjected to electrophoresis through 15% polyacrylamide gel, transferred to a Nitrocellulose Membrane (Schleicher & Schuell), blocked at room temperature for 1 hour with TBST solution containing 3% BSA (20 mmole/L Tris-HCl, 137 mmole//l NaCl, 0.1% Tween-20), washed TBST solution three times (each for 10 minutes), and reacted with primary antibody (anti-Histidine or anti-Bigh3) for 1 hour. The resultant product was washed with TBST solution three times (each for 10 minutes), reacted with a secondary antibody conjugated to horseradish peroxidase (HRP) for 1 hour, washed TBST solution three times (each for 10 minutes), and visualized by ECL (Amersham Biosciences, UK) so as to detect the change in the amount of mdhFas-1-MMPsubstrate-RGD structural peptide.

In data set [4] the target is cathepsin L (Homo sapiens, UniProt P07711). In words: Enzymatic digestion test, cathepsin L. It is filed as biochemical. Conditions: 3 ug peptide, cathepsin L 100, 200, 800 ng, 37° C. 4 hours. The method, then: as §2
Chain of cathepsin L (P07711 114-333, species assumed): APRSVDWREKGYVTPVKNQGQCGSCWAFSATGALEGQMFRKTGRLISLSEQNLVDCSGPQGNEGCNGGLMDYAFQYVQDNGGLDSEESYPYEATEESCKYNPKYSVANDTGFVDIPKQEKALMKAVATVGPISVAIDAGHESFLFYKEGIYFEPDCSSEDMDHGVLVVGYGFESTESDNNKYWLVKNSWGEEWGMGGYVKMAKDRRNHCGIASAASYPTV
The target of data set [5] is T1, cathepsin K (Homo sapiens, UniProt P43235).
T1 sequence (P43235 115-329): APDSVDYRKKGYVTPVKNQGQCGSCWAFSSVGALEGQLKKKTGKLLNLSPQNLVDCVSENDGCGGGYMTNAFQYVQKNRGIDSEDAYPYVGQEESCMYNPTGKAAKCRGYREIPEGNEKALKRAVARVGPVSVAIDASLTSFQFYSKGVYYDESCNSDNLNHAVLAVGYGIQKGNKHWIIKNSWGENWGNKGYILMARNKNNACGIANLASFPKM
Description: Enzymatic digestion test, cathepsin K. It is filed as biochemical. Conditions: 3 ug peptide, cathepsin K 10, 50, 100 ng, 37° C. 4 hours. The method, then:
as §2

Data set [6] deals with MMP3 (Homo sapiens, UniProt P08254). In words: Enzymatic digestion test, MMP3. In kind it is biochemical. Conditions: 3 ug peptide, MMP3 10, 50, 100 ng, 37° C. 4 hours. As for the experimental part:
as §2

Data set [7] addresses T2, MMP2 (Homo sapiens, UniProt P08253).
T2 sequence (P08253 110-660): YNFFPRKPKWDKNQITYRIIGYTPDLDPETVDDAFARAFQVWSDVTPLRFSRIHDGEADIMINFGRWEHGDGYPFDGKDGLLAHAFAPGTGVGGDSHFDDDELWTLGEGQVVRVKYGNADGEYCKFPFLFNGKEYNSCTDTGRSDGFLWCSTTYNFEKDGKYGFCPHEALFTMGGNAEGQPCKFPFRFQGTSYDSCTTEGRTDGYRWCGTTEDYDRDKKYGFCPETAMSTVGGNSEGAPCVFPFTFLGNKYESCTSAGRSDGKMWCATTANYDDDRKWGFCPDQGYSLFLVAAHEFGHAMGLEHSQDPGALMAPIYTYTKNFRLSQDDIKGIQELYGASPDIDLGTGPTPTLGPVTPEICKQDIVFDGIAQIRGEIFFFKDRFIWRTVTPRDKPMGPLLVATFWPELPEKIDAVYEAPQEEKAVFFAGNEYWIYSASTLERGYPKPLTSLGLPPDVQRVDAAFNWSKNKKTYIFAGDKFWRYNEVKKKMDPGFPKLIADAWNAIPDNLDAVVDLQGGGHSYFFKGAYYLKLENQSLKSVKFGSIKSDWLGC
Description: Enzymatic digestion test, MMP2. In kind it is biochemical. Conditions: 3 ug peptide, MMP2 100, 200, 800 ng, 37° C. 4 hours. The method, then:
as §2

Data set [8] concerns the target T3, MMP1 (Homo sapiens, UniProt P03956).
T3 sequence (P03956 100-469): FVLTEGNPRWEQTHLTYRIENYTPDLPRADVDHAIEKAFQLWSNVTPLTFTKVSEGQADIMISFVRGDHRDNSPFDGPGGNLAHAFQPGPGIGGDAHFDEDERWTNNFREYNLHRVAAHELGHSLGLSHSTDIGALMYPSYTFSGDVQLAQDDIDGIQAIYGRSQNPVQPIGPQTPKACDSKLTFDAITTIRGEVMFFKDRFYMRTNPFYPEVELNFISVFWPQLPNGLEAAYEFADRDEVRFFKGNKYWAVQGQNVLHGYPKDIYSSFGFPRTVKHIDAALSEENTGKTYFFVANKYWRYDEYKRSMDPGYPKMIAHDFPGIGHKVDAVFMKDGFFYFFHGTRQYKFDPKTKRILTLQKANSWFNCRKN
In words: Enzymatic digestion test, MMP1. The conditions noted are these: 3 ug peptide, MMP1 5, 10, 50 ng, 37° C. 4 hours. It is filed as biochemical. As for the experimental part:
as §2

For data set [9], the system named is collagen-induced arthritis (CIA) mouse model. In words: Arthritis therapeutic effect in CIA mouse (clinical arthritis index). It is filed as in vivo. As for the experimental part:
A CIA mouse model having the similar characteristic to that of human rheumatoid arthritis was prepared according to the description in a known literature (Protocol for the successful induction of collagen-induced arthritis (CIA) and collagen antibody-induced arthritis (CAIA) in mice. Chondrex, Redmond, Wash.): Bovine type 2 collagen 100 ug was mixed with Freund's complete adjuvant, and hypodermically inoculated into the tail of the mouse. After 3 weeks, bovine type 2 collagen 100 ug was mixed with Freund's incomplete adjuvant, and inoculated again into the tail of the mouse. Then, the mouse was used in the experiment.
In order to find out the therapeutic effect of arthritis in a CIA model, for four weeks from the onset (the 23rd day) of arthritis following the second injection of the bovine type 2 collagen, MFK23 or MFK24 was daily injected into the abdominal cavity in doses of 0.1 mg/kg, 1 mg/kg, 10 mg/kg and 30 mg/kg. As a control group, the same amount of PBS was injected into the abdominal cavity. From the 23rd day to the 50th day, by using a Clinical arthritis index, the severity of arthritis was daily determined. The determination was based on the following data.
0; no symptom, 1; edema in one articulation or light edema, 2; severe edema in 2 or more articulations, 3; severe edema in most articulations, 4; severe edema in the whole of legs.

Data set [10] is described as follows: Toxicity test in CIA mouse (weight, serologic test, blood test). The conditions noted are these: CIA mouse, 22nd day vs 48th day.
Description: On the 48th day, a serologic test and a blood test were carried out.

Entries after “also recorded” stand apart in the source; their conditions may differ.

Chain of MMP3 (P08254 100-477, species assumed): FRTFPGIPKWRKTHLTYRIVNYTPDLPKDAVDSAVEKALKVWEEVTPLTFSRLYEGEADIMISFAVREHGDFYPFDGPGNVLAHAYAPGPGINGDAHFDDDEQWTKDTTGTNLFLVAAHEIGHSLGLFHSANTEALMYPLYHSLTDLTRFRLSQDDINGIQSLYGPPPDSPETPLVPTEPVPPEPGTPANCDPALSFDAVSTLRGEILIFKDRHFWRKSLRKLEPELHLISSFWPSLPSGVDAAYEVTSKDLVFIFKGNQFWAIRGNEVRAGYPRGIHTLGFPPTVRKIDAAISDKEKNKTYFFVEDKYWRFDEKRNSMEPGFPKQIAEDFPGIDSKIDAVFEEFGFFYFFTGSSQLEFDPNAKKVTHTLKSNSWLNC
Chain of cathepsin D (P07339 65-412, species assumed): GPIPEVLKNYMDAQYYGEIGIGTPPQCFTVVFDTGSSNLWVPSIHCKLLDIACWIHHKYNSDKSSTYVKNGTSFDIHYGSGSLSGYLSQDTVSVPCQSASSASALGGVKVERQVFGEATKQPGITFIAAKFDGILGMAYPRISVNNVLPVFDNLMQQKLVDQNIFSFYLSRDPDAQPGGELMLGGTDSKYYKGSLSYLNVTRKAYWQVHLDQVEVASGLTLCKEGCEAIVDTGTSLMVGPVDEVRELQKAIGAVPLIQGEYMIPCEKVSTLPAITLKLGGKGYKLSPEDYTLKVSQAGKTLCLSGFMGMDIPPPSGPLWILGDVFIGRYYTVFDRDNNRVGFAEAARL

In turn, “RGDSP (amino acid chain comprising ′RGD′) [reference compound]” yielded an adhesion inhibiting effect in data set [1] of 0%.

B1: MFK25: fusion peptide having sequential links of mdhFas-1, MMP consensus substrate GPLGIAG (SEQ ID NO: 7), and QERGDSLA (SEQ ID NO: 10) (protein)
chain: QAMPPEELNKLLANAKELTNILKYHIGDEILVSGGIGALVRLKSLQGDKLEVSSKNNVVSVNKEPVAETDIMEFGPLGIAGVDGQERGDSLAGLE
modifications: MFK25
B1: in [1], the βig-h3-mediated cell adhesion result is “even at a very low concentration can inhibit the cell adhesion; also recorded: concentration-dependently inhibited”. Moreover, in data set [2], the βig-h3-mediated cell migration result is listed as “inhibited the cell migration; also recorded: concentration-dependently inhibited”. Moreover, the “cleavage through treatment with cathepsin D” value in data set [3] is on record as “not cleaved”. Further, the “cleavage through treatment with cathepsin L” value in data set [4] was “not cleaved”. Further, in data set [5], the “cleavage through treatment with cathepsin K” value is “not cleaved”. Besides, the “cleavage through treatment with MMP-3” value in data set [6] is listed as “concentration-dependently cleaved; also recorded: well cleaved”. Also, the “cleavage through treatment with MMP-2” value in [7] is recorded as “concentration-dependently cleaved”. Besides, in data set [8], the “cleavage through treatment with MMP-1” value is given as “concentration-dependently cleaved; also recorded: well cleaved”.

B2: MFK27: fusion peptide having sequential links of mdhFas-1, MMP3 substrate GPLGLWARG (SEQ ID NO: 8), and QERGDSLA (SEQ ID NO: 10) (protein)
chain: MALLMRLLTLALALSVGPAGTLARSQAMPPEELNKLLANAKELTNILKYHIGDEILVSGGIGALVRLKSLQGDKLEVSSKNNVVSVNKEPVAETDIMEFGPLGLWARGVDQERGDSLAGLE
modifications: MFK27
In the case of B2, the βig-h3-mediated cell adhesion result in data set [1] is recorded as “even at a very low concentration can inhibit the cell adhesion; also recorded: concentration-dependently inhibited”.

B3: mdhFas-1: peptide prepared by removing H1 and H2 regions from the fourth fas-1 domain of mouse βig-h3 (protein)
chain: QAMPPEELNKLLANAKELTNILKYHIGDEILVSGGIGALVRLKSLQGDKLEVSSKNNVVSVNKEPVAETDIM
modifications: mdhFas-1
notes: peptide prepared by removing H1 and H2 regions from the fourth fas-1 domain of mouse βig-h3
B3: in [1], the adhesion inhibiting effect was found to be 50% and the βig-h3-mediated cell adhesion entry is reported as “concentration-dependently inhibited”. In data set [2], the βig-h3-mediated cell migration entry is given as “concentration-dependently inhibited”. In data set [9] (10 mg/kg daily), the “arthritis inhibition (clinical arthritis index)” value is listed as “about 32%”. The “arthritis inhibition (clinical arthritis index)” value in data set [9] (30 mg/kg daily) is “about 69%”. In addition, in data set [9] (daily into the abdominal cavity), the “arthritis inhibiting effect (clinical arthritis index), in words” value was “concentration-dependently inhibited”. Besides, the “body weight change compared to control group” value in data set [10] is “abnormal findings in the weight change were not observed”.
